Reference: patent US20240400720A1 (NOVIMMUNE S A, published 2024)

Columns and labels:
human CD47 = target: T1, human CD47 (human, UniProt Q08722 19-141, limits assumed); assay: affinity maturation by phage display on hCD47; positive in hCD47-SIRPα inhibition screen, reformatted as IgG
T1 construct: also called hCD47

[1] = target: T2, human CD47 on the cell surface (human, UniProt Q08722 19-323); assay: CD47-SIRPα competitive binding assay: His-tagged soluble human SIRPα (200 ng/ml) on hCD47-transfected CHO cells, antibody 3.3 pM-330 nM; blocked ligand SIRPα
T2 construct: whole, on cells; also called huCD47; native CD47

Row | binding result (human CD47) | binding result [1] | Binder
1 | binds | binds | Ka3D3 antibody (antibody, human IgG1, kappa, V domains shown, IgG) VH: not shown VL: DIQMTQSPSSLSASVGDRVTITCRASQSIGKYLNWYQQKPGKAPKLLIYAASRLQSGVPSRFSGSGSGTDFTLTISSLQPEDFATYYCQQMHPRAPKTFGQGTKVEIKR
2 | binds | binds | Ka3A3 antibody (antibody, human IgG1, kappa, V domains shown, IgG; also called KA3-P1A3) VH: not shown VL: DIQMTQSPSSLSASVGDRVTITCRASQSIASYLNWYQQKPGKAPKLLIYAASRLQSGVPSRFSGSGSGTDFTLTISSLQPEDFATYYCQQMHPRAPKTFGQGTKVEIKR
3 | binds | binds | Ke8G11 antibody (antibody, human IgG1, kappa, V domains shown, IgG) VH: not shown VL: DIQMTQSPSSLSASVGDRVTITCRASQSIGRYLNWYQQKPGKAPKLLIYAASSLQSGVPSRFSGSGSGTDFTLTISSLQPEDFATYYCQQMHPRGPKTFGQGTKVEIKR
4 | binds | binds | Ke8A8 antibody (antibody, human IgG1, kappa, V domains shown, IgG) VH: not shown VL: DIQMTQSPSSLSASVGDRVTITCRASQSISKYLNWYQQKPGKAPKLLIYAASTLQSGVPSRFSGSGSGTDFTLTISSLQPEDFATYYCQQMHPRAPKTFGQGTKVEIKR
5 | binds | binds | Ka3G2 antibody (antibody, human IgG1, kappa, V domains shown, IgG; also called KA3-P5G2) VH: not shown VL: DIQMTQSPSSLSASVGDRVTITCRASQSIDKYLNWYQQKPGKAPKLLIYAASRLQSGVPSRFSGSGSGTDFTLTISSLQPEDFATYYCQQMHPRGPKTFGQGTKVEIKR
6 | binds | binds | Ke8B7 antibody (antibody, human IgG1, kappa, V domains shown, IgG) VH: not shown VL: DIQMTQSPSSLSASVGDRVTITCRASQSIGKYLNWYQQKPGKAPKLLIYAASSLQSGVPSRFSGSGSGTDFTLTISSLQPEDFATYYCQQMHPRSPKTFGQGTKVEIKR
7 | binds | binds | Ke8G2 antibody (antibody, human IgG1, kappa, V domains shown, IgG) VH: not shown VL: DIQMTQSPSSLSASVGDRVTITCRASQSIGRYLNWYQQKPGKAPKLLIYAASRLQSGVPSRFSGSGSGTDFTLTINSLQPEDFATYYCQQKHPRAPRTFGQGTKVEIKR
8 | binds | – | Ke8F2 antibody (antibody, human IgG1, kappa, V domains shown, IgG) VH: not shown VL: DIQMTQSPSSLSASVGDRVTITCRASQSIDKYLNWYQQKPGKAPKLLIYAASSLQSGVPSRFSGSGSGTDFTLTISSLQPEDFATYYCQQKHPRAPRTFGQGTKVEIKR
9 | binds | binds | Ke8C7 antibody (antibody, human IgG1, kappa, V domains shown, IgG) VH: not shown VL: DIQMTQSPSSLSASVGDRVTITCQASQDINRYLNWYQQKPGKAPKLLIYAASSLQSGVPSRFSGSGSGTDFTLTISSLQPEDFATYYCQQRHPRGPRTFGQGTKVEIKR
10 | binds | binds | Ke8H3 antibody (antibody, human IgG1, kappa, V domains shown, IgG) VH: not shown VL: DIQMTQSPSSLSASVGDRVTITCRASQSINRYLNWYQQKPGKAPKLLIYAASRLQSGVPSRFSGSGSGTDFTLTISSLQPEDFATYYCQQKHPRGPRTFGQGTKVEIKR
11 | binds | binds | Ka3H3 antibody (antibody, human IgG1, kappa, V domains shown, IgG) VH: not shown VL: DIQMTQSPSSLSASVGDRVTITCQASQDIAKYLNWYQQKPGKAPKLLIYAASALQSGVPSRFSGSGSGTDFTLTISSLQPEDFATYYCQQMHPRSPKTFGQGTKVEIKR
12 | binds | binds | Ke8E8 antibody (antibody, human IgG1, kappa, V domains shown, IgG) VH: not shown VL: DIQMTQSPSSLSASVGDRVTITCQASQDINKYLNWYQQKPGKAPKLLIYAASSLQSGVPSRFSGSGSGTDFTLTISSLQPEDFATYYCQQKHPRGPRTFGQGTKVEIKR
13 | – | binds | 5A3M4 (antibody, human IgG1, kappa, V domains shown, the list MOLECULES holds only the monovalent form; also called 5A3-M4 antibody) VH: not shown VL: DIQMTQSPSSLSASVGDRVTITCQASQDINKYLNWYQQKPGKAPKLLIYGASRLETGVPSRFSGSGSGTDFTFTISSLQPEDIATYYCQQKHPRNPRTFGQGTKVEIKR
14 | binds | binds | Ke8H5 antibody (antibody, human IgG1, kappa, V domains shown, IgG; also called KE8-P6H5) VH: not shown VL: DIQMTQSPSSLSASVGDRVTITCRASQSIARYLNWYQQKPGKAPKLLIYAASSLQSGVPSRFSGSGSGTDFTLTISSLQPEDFATYYCQQFHKRAPQTFGQGTKVEIKR
15 | binds | binds | Ka3B2 antibody (antibody, human IgG1, kappa, V domains shown, IgG) VH: not shown VL: DIQMTQSPSSLSASVGDRVTITCRASQNIGKYLNWYQQKPGKAPKLLIYSASRLQSGVPSRFSGSGSGTDFTLTISSLQPEDFATYYCQQMHPRAPKTFGQGTKVEIKR
16 | binds | binds | Ka3A2 antibody (antibody, human IgG1, kappa, V domains shown, IgG) VH: not shown VL: DIQMTQSPSSLSASVGDRVTITCRASQSISKYLNWYQQKPGKAPKLLIYAASRLQSGVPSRFSGSGSGTDFTLTISSLQPEDFATYYCQQMHPRSPKTFGQGTKVEIKR
17 | binds | binds | Ke8A4 antibody (antibody, human IgG1, kappa, V domains shown, IgG) VH: not shown VL: DIQMTQSPSSLSASVGDRVTITCRASQSIAKYLNWYQQKPGKAPKLLIYAASSLQSGVPSRFSGSGSGTDFTLTISSLQPEDFATYYCQQFHKRSPQTFGQGTKVEIKR
18 | binds | binds | Ke8F1 antibody (antibody, human IgG1, kappa, V domains shown, IgG) VH: not shown VL: DIQMTQSPSSLSASVGDRVTITCRASQSIASYVNWYQQKPGKAPKLLIYAASGLQSGVPSRFSGSGSGTDFTLTISSLQPEDFATYYCQQFHKRRPQTFGQGTKVEIKR
19 | binds | binds | Ka3H8 antibody (antibody, human IgG1, kappa, V domains shown, IgG) VH: not shown VL: DIQMTQSPSSLSASVGDRVTITCRASQSIASYLNWYQQKPGKAPKLLIYAASRLQSGVPSRFSGSGSGTDFTLTISSLQPEDFATYYCQQMHPRSPKTFGQGTKVEIKR
20 | binds | binds | Ke8G6 antibody (antibody, human IgG1, kappa, V domains shown, IgG) VH: not shown VL: DIQMTQSPSSLSASVGDRVTITCRASQSIGRYLNWYQQKPGKAPKLLIYAASSLQSGVPSRFSGSGSGTDFTLTISSLQPEDFATYYCQQMHPRAPKTFGQGTKVEIKR
21 | binds | binds | Ke8B2 antibody (antibody, human IgG1, kappa, V domains shown, IgG; also called KE8-P3B2) VH: not shown VL: DIQMTQSPSSLSASVGDRVTITCRASQSIGKYLNWYQQKPGKAPKLLIYAASRLQSGVPSRFSGSGSGTDFTLTISSLQPEDFATYYCQQKHPRAPRTFGQGTKVEIKR
22 | binds | binds | Ka3C5 antibody (antibody, human IgG1, kappa, V domains shown, IgG; also called KA3-P5C5) VH: not shown VL: DIQMTQSPSSLSASVGDRVTITCRASQSISRYLNWYQQKPGKAPKLLIYSASSLQSGVPSRFSGSGSGTDFTLTISSLQPEDFATYYCQQMHPRAPKTFGQGTKVEIKR
23 | binds | binds | Ke8C4 antibody (antibody, human IgG1, kappa, V domains shown, IgG) VH: not shown VL: DIQMTQSPSSLSASVGDRVTITCRASQSISRYLNWYQQKPGKAPKLLIYAASNLQSGVPSRFSGSGSGTDFTLTISSLQPEDFATYYCQQMHPRGPKTFGQGTKVEIKR
